Test results as given in IntAct's records for PubMed 10364224.

B1: Tyrosine-protein phosphatase non-receptor type 3 (Homo sapiens), P26045 (parent)
chain: MTSRLRALGGRINNIRTSELPKEKTRSEVICSIHFLDGVVQTFKVTKQDTGQVLLDMVHNHLGVTEKEYFGLQHDDDSVDSPRWLEASKAIRKQLKGGFPCTLHFRVRFFIPDPNTLQQEQTRHLYFLQLKMDICEGRLTCPLNSAVVLASYAVQSHFGDYNSSIHHPGYLSDSHFIPDQNEDFLTKVESLHEQHSGLKQSEAESCYINIARTLDFYGVELHSGRDLHNLDLMIGIASAGVAVYRKYICTSFYPWVNILKISFKRKKFFIHQRQKQAESREHIVAFNMLNYRSCKNLWKSCVEHHTFFQAKKLLPQEKNVLSQYWTMGSRNTKKSVNNQYCKKVIGGMVWNPAMRRSLSVEHLETKSLPSRSPPITPNWRSPRLRHEIRKPRHSSADNLANEMTYITETEDVFYTYKGSLAPQDSDSEVSQNRSPHQESLSENNPAQSYLTQKSSSSVSPSSNAPGSCSPDGVDQQLLDDFHRVTKGGSTEDASQYYCDKNDNGDSYLVLIRITPDEDGKFGFNLKGGVDQKMPLVVSRINPESPADTCIPKLNEGDQIVLINGRDISEHTHDQVVMFIKASRESHSRELALVIRRRAVRSFADFKSEDELNQLFPEAIFPMCPEGGDTLEGSMAQLKKGLESGTVLIQFEQLYRKKPGLAITFAKLPQNLDKNRYKDVLPYDTTRVLLQGNEDYINASYVNMEIPAANLVNKYIATQGPLPHTCAQFWQVVWDQKLSLIVMLTTLTERGRTKCHQYWPDPPDVMNHGGFHIQCQSEDCTIAYVSREMLVTNTQTGEEHTVTHLQYVAWPDHGVPDDSSDFLEFVNYVRSLRVDSEPVLVHCSAGIGRTGVLVTMETAMCLTERNLPIYPLDIVRKMRDQRAMMVQTSSQYKFVCEAILRVYEEGLVQMLDPS

Variants of: B1
Settings: with tera_human VCP

| effect of a mutation on the interaction | Variant |
| --- | --- |
| increasing interaction | D811A |

Variants of: B1
Settings: with tera_human VCP
Remark: another data set of the same source

| effect of a mutation on the interaction | Variant |
| --- | --- |
| increasing interaction | Y676F;D811A |

Variants of: B1
Settings: with tera_mouse Vcp

| effect of a mutation on the interaction | Variant |
| --- | --- |
| increasing interaction | Y676F;D811A |
